The record followed here is publication PMC5999318 (Molecular cell, 2018).

In data set [1] the target is T1, His-tagged CodA, purified recombinant (E. coli, UniProt P25524 1-427).
T1 sequence (looked up): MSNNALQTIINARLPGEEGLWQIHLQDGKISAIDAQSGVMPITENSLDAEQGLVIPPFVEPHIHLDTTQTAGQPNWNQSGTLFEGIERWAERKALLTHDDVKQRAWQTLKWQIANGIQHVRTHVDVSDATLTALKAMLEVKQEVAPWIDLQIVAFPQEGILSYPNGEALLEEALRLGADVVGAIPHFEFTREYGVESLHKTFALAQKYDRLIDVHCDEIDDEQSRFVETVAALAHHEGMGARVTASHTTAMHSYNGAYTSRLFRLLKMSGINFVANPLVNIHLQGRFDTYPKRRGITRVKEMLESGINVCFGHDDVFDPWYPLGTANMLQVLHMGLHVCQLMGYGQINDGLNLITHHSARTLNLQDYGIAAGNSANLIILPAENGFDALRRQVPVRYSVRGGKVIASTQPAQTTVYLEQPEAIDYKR
As to the kind of experiment: co-IP.

Data set [2] concerns the molecule itself. As to the kind of experiment: non-reducing SDS-PAGE and anti-FLAG western blot of lysates. For orientation: Immunoblotting shows a protein as a band on a membrane.

B1: His-tagged GAPDH, purified recombinant (enzyme, E. coli, UniProt P0A9B2 1-331, looked up)
chain: MTIKVGINGFGRIGRIVFRAAQKRSDIEIVAINDLLDADYMAYMLKYDSTHGRFDGTVEVKDGHLIVNGKKIRVTAERDPANLKWDEVGVDVVAEATGLFLTDETARKHITAGAKKVVMTGPSKDNTPMFVKGANFDKYAGQDIVSNASCTTNCLAPLAKVINDNFGIIEGLMTTVHATTATQKTVDGPSHKDWRGGRGASQNIIPSSTGAAKAVGKVLPELNGKLTGMAFRVPTPNVSVVDLTVRLEKAATYEQIKAAVKAAAEGEMKGVLGYTEDDVVSTDFNGEVCTSVFDAKAGIALNDNFVKLVSWYDNETGYSNKVLDLIAHISK
As to B1, in data set [1], the binding result is listed as “binds”.

B2: FLAG-tagged Hcp (hybrid-cluster protein), overexpressed in WT E. coli (enzyme, UniProt P75825 1-550, looked up)
chain: MFCVQCEQTIRTPAGNGCSYAQGMCGKTAETSDLQDLLIAALQGLSAWAVKAREYGIINHDVDSFAPRAFFSTLTNVNFDSPRIVGYAREAIALREALKAQCLAVDANARVDNPMADLQLVSDDLGELQRQAAEFTPNKDKAAIGENILGLRLLCLYGLKGAAAYMEHAHVLGQYDNDIYAQYHKIMAWLGTWPADMNALLECSMEIGQMNFKVMSILDAGETGKYGHPTPTQVNVKATAGKCILISGHDLKDLYNLLEQTEGTGVNVYTHGEMLPAHGYPELRKFKHLVGNYGSGWQNQQVEFARFPGPIVMTSNCIIDPTVGAYDDRIWTRSIVGWPGVRHLDGDDFSAVITQAQQMAGFPYSEIPHLITVGFGRQTLLGAADTLIDLVSREKLRHIFLLGGCDGARGERHYFTDFATSVPDDCLILTLACGKYRFNKLEFGDIEGLPRLVDAGQCNDAYSAIILAVTLAEKLGCGVNDLPLSLVLSWFEQKAIVILLTLLSLGVKNIVTGPTAPGFLTPDLLAVLNEKFGLRSITTVEEDMKQLLSA
What is called stoichiometry N is the number of molecules, sites or subunits per partner or assembly. Consider B2, for which the “stoichiometry N” value in data set [2] was found to be 2.
